From the RNAGym collection of RNA variant scans (doi:10.1073/pnas.2313332121)

B1: TPR t1 (parent)
chain: GACCAAUCUGCCCUCAGAGCUCGAGAACAUCUUCGGAUGCAGAGGAGGCAGGCUUCGGUGGCGCGAUAGCGCCAACGUCCUCAACCUCCAAUGCAUCCCACCACAUGAUGAUGCCUGAAGAGCCUUGGUUUUUUG

Variants of: B1
Test: polymerase ribozyme fitness, log enrichment relative to wild type (log ratio); higher = more active; in vitro selection for triplet polymerase activity
Outline: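 Mutant libraries were PCR-built and transcribed for each subunit of a heterodimeric triplet polymerase ribozyme and selected for one round in triplicate at −7 °C, frozen, before gel excision of extended constructs and streptavidin-bead capture. Input and output libraries were Illumina-sequenced, keeping genotypes with ≥10 input reads and ≥1 read per output. Fitness is a logarithmic ratio of genotype to wild-type enrichment, in base 2, using inverse-variance-weighted replicate averages.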

Variant	polymerase ribozyme fitness (log ratio)
GACCAAUGUGCCCUCAGAGCUCGAGAACAUCUUCGGAUGCAGAGGAGGCAGGCUUCGGUGGCGCGAUAGCGCCAACGUCCUCAACCUCCAAUGCAUCCCACAACAUGAUGAUGCCUGAAGAGCCUUGGUUUUUUG [C8G C102A]	-1.02
GACCAAUGUGCCCUCAGAGCUCGAGAACAUCUUCGGAUGCAGAGGAGGCAGGCUUCGGUGGCGCGAUAGCGCCAACGUGAUCAACCUCCAAUGCAUCCCACCACAUGAUGAUGCCUGAAGAGCCUUGGUUUUUUG [C8G C79G C80A]	-5.06
GACCAAUGUGCCCUCAGAGCUCGAGAACAUCUUCGGAUGCAGAGGAGGCAGGCUUCGGUGGCGCGAUAGGGCCAACGUCCUCAACCUCCAAUGCAUCCCACCACAUGAUGAUGCCUGAAGAGCCUUGGUUUUUUG [C8G C70G]	-1.84
GACCAAUGUGCCCUCAGAGCUCGAGAACAUCUUCGGAUGCAGAGGAGGCAGGCUUCGGUGGCGCGAUAGCGCAAACGUCCUCAACCUCCAAUGCAUCCCACCACAUGAUGAUGCCUGAACAGCCUUGGUUUUUUG [C8G C73A G120C]	2.29
GACCAAUGUGCCCUCAGAGCUCGAGAACAUCUUCGGAUGCAGAGGAGGCAGGCUUCGGUGGCGCGAUAGCGCCAACGUCCUCAACCUCAAAUGCAUCCCACCACUUGAUGAUGCCUGAAGAGCCUUGGUUUUUUG [C8G C89A A105U]	-3.66
GACCAAUGUGCCCUCAGAGCUCGAGAACAUCUUCGGAUGGAGAGGAGGCAGGCUUCGGUGGCGCGAUAGCGCCAACGUCCGUAACCUCCAAUGCAUCCCACCACAUGAUGAUGCCUGAAGAGCCUUGGUUUUUUG [C8G C40G U81G C82U]	-0.759
GACCAAUGUGCCCUCAGAGCUCGAGAACAUCUUCGGAUGCAGAGGAGGCAGGCUUAGGUGGCGCGAUAGCGCCAACGUCCUCAACCUCCAAUGCAUCCCACCACAUGAUGAUGCCUGAAGAGACUUGGUUUUUUG [C8G C56A C123A]	1.29
GACCAAUGUGCCCUCAGAGCUCGAGAACAUCUUCGGAUGCAGAGGAGGCAGGCUUCGGUGGCGCGAUAGCGCGAACGUCCUCAACCUCCAAUGCAUCCCACCACAUGAUGAUGCCUGAAGAGCCUUGAUUUUUUG [C8G C73G G128A]	-1.19
GACCAAUGUGCCCUCAGAGCUCGAGAACAUCUUCGGAUGCAGAGGAGGCAGGCUUCGGUGGCGUGAUAGCGCCAACGUCCUCAACCUCCAAUGCAUCCCACCACAUGAUGAUGCCUGAAGAGCCUUGGUUUUUUU [C8G C64U G135U]	0.0899
GACCAAUGUGCCCUCAGAGCUCGAGAACAUCUUCGGAUGAAGAGGAGGCAGGCUUCGGUGGCGCGAUAGCGCCAACGUCCUCAACCUCCAAUGCAUCCCACCACAUGAUGAUGCCUGAAGAGCCUUGGUUUUUUG [C8G C40A]	-1.11
GACCAAUGUACUCUCAGAGCUCGAGAACAUCUUCAGAUGCAGAGGAGGCAGGCUUCGGUGGCGCGCUAGCGGCAACGUCCUCAACCUCCAAUGCAUCCCACCACAUGAUGAUGCCUGAAGUCCCUUGGUCUUUUG [C8G G10A C12U G35A A66C C72G A121U G122C U130C]	-7.42
GACCAAUGUGCCCUCAGAGCUCGAGAACAUCUUGGGAUGCAGAGGAGGCAGGCUUCGGUGGCGCGAUAGCGCCAACGUCCUCAACCUUCAAUGCAUCCCACCACAUGAUGACACCUGAAGAGCCUUGGUUUUUUG [C8G C34G C88U U112C G113A]	-6.08
GACCAAUGUGCCCUCAGAGCUCGAGAACAUCUUCGGAUGCAGAGGAGGCAGGCUUCGGUGGCGCGAUAGCGCCAACGUCCUCAAACUCCAAUGCAUCCCACCACAUGAUGAUGCCUGAAGUGCCUUGGUUUUUUG [C8G C85A A121U]	1.35
GACCAAUGUGCCCUCAGAGCUCGAGAACAUCUUUGGAUGCAGAGGAGGCAGGCUUCGGUGGCGCGAUAGAGCCAACGUCCUCAACCUCCAAUGCAUCCCACCACAUGAUGAUGCCUAAAGAGCCUAGGUUUUUUG [C8G C34U C70A G117A U126A]	-6.92
GACCAAUGUGCCCUCAGAGCUCGAGAACAUCUUCGGAUGCAGAGGAGGCAGGCUUCGGUGGCGCGAUAGCGCCAAUGUCCUCAACCUCCAAUGCAUCCCACCACAUGAUGAUGCCUGAAGAGCCUUGGUUUUUUG [C8G C76U]	-0.187
GACCAAUGUGCCCUCAGAGCUCGAGAACAUCUUCGGAUGAAGAGGAGGCAGGCUUCGGUGGCGCGAUAGCGCCAACGCCCUCAACCUCCAAUGCAUCCCACCACAUGAUGAUGCCUGAAGAGCCUUGGUUUUUUG [C8G C40A U78C]	-0.518
GACCAAUGUUCCCUCCGAGCUCGAGAACAUCUUCGGAUGCAGAGGAGGCAGGCUUCGGUGGCGCGAUAGCGCCAACUUCCACAAACUCCAAUGCAUCCCACCACAUGAUGAUGCCUGAAGAGCCUUGGUUUUUUG [C8G G10U A16C G77U U81A C85A]	-3.62
GACCAAUGUGCCCUCAGAGCUCGAGAACAUCUUCGGAUGCAGAGGAGGCAGGCUUCGGUGGCGCGAUAGCGCCAAAGUCCUAAACCUCCAAUGCAUCCCACCACAUGAUGAUGGCUGAAGAGCCUUGGUUUUUUG [C8G C76A C82A C114G]	-4.44
GACCAAUGUGCCCUCAGAGCUCGAGAACAUCUUCGGAUGAAGAGGAGGCAGGCUUCGGUGGCGCGAUAGGGCCAACGUCCUCAACCUCCAAUGCAUCCCACCACAUGAUGAUGACUGAAGAGCCUUGGUUUUUUG [C8G C40A C70G C114A]	-5.85
GACCAAUGUGCCCUCAGAGCUCGAGAACAUCUUCGGAUGCAGAGGAGGCAGGCUUCGGUGGCGCGAUAGCGCCAACGUCCUCAACCUCCAAUGCAUCCCACCACAUGAUGAUGCCUGAAGAGACUUGGUUUUUUG [C8G C123A]	0.956
GACCAAUGUACCCUCAGAGCUCGAGAACAUCUUCGGAUGCAGAGGAGGCAGGCUUCGGUGGCGCGAUAGCGCCAACGUCCUCAACCUCCAAUGCAUCCCACCACAUGAUGAUGCCUGAAGAGCCUUGGUUUUUUG [C8G G10A]	0.258

Variant	polymerase ribozyme fitness (log ratio)
GACCAAUGUGCCCUCAGAGCUCGAGAACAUCUUCGGAUGCAGAGGAGGCAGGCUUCGGUGGUGCGAUAGCGCCAACGUCCUCAACCACCAAUGCAUCCCACCACAUGAUGAGUCCUGAAGAGUCUUAGUUUUUUG [C8G C62U U87A U112G G113U C123U G127A]	-4.35
GACCAAUGUGCCCUCAGAGCUCGAGAACAUCUUCGGAUGCAGAGGAGGCAGGCUUCGGUGGUGCGAUAGCGCCAACGUCCUCAACCUCCAAUGCAUCCCACCACAUGAUGAUGCCUGUAGAGCCUUGGUUCUUUG [C8G C62U A118U U131C]	1.45
GACCAAUGUGCCCUCAGAGCUCGAGAACAUCUUCGGAUGCAGAGGAGGCAGGCUUCGGUGGCGCGAUAGCGGCAACGUCCUAAACCUCCAAUGCAUCCCACUACAUGAUGAUGCCUGAAGAGCCUUGGUUUUUUG [C8G C72G C82A C102U]	-1.73
GACCAAUGUGCCCUCAGAGCUCGAGAACAUCUUCGGAUGCAGAGGAGGCAGGGUUUGGUGGCGCGAUAGCGCCAACGUCCUCAACCUCCAAUCCAUCCCACCACAUGAUGAUGCCUGAAGAGCCUUGGUUUUUUG [C8G C53G C56U G93C]	0.798
GACCAAUGUGCCCUCAGAGCUCGAGAACAUCUUCGGAUGGAGAGGAGGCAGGCUUCGGUGGCGCGAUAGCUCCAACGUCCGUAACCUCCAAUGCAUCCCACCACAUGAUGAUGCCUGAAGAGCCUUGGUUUUUUG [C8G C40G G71U U81G C82U]	-0.811
GACCAAUGUGCCCUCAGAGCUCGAGAACAUCUUCGGAUGCAGAGGAGGCAGGCUUAGGUGGCGCGAUAGCGCCAACAUCCUCAACCUCCAAUGCAUCCCACCACAUGAUGAUGCCUGAAGAGCCUUGGUUUUUUG [C8G C56A G77A]	-0.27
GACCAAUGUUCCCUCAGAGCUCGAGAACAUCUUCGUAUGCAGAGGAGGCAGGCUUCGGUGGCGCGAUAGCGCCAACGUCCUCAACCUCCAAUGCAUCCCACCACAUGAUGAUGCCUGAAGAGCCUUGGUUUUUUG [C8G G10U G36U]	-0.687
GACCAAUGUGCCCUCAGAGCUCGAGAACAUCUUGGGAUCCAGAGGAGGCAGGCUUCGGUGGCGCGAUAGCGCCAACGUCCUCAACCUCCAAUGCAUCCCACCACAUGAUGAUGCCUGAAUAGCCUUGGUUUUUUG [C8G C34G G39C G120U]	-4.99
GACCAAUGUGCCCUCAGAGCUCGAGAACAUCUUCGGAUGCAGAGGAGGCAGGCUUCGGUGGAGCGAUAGCGCCAACGUCCUCAACCUCCAAUGAAUCCCACCACAUGAUGAUGCCUGAAUAGCCUUGGUUUUUUG [C8G C62A C94A G120U]	0.318
GACCAAUGUGCCCUCAGAGCUCGAGAACAUCUUCGGAUGCAGAGGAGGCAGGCUUCGGUGGCGCGAUAGCGCCAACGUCCUCAACCUCAAAUGCAUCCCACCACAUGAUGAUGCCUAAAGAGCCUUGGAUUUUUG [C8G C89A G117A U129A]	-2.73
GACCAAUGUGCCCUCAGAGCUCGAGAACAUCUUCGGAUGCAGAGGAGGCAGGCUUCGGUGGCGCGAUAGCGCCAACGUCCUCAAUCUCCAAUGCAUCCCACCACAUGAUGAUGCCUGAAGAGCCUUGGUUUUUUG [C8G C85U]	-0.269
GACCAAUGUACCCUCAGAGUUCGUGAACAUCUUCGGAUGCAGAGGAGGUAGGCUUCGGUGACGCGAUAGCGCCAACGUCGUCAACCUCCAAUGCAUCCCACCACAUGAUGAUGCCUGAAUAGCCUUGGUUUUUUG [C8G G10A C20U A24U C49U G61A C80G G120U]	-7.85
GACCAAUGUGCCCUCAGAGCUCGAGAACAUCUUCGGAUGCAGAGGAGGCAGGCUUCGGUGGCGCGAUAGCGCCAACGUUCUCAACCUCCAAUGCAUCCCACCACAUGAUCAUGCCUGAAGAGCCUUGGUUUUUUG [C8G C79U G110C]	-4.01
GACCAAUGUGCCCUCAGAGCUCGAGAACAUCUUCGGAUGCAGAGGAGGCAGGCUUGGGUGGCGCGAUAGCGCCAACGUCCUCAACCUCACAUGCAUCCCACCACAUCAUGAUGCCUCAAGAGCCUUGGUUUUUUG [C8G C56G C89A A90C G107C G117C]	-5.56
GACCAAUGUGCCCUCAGAGCUCGAGAACAUCUUCGGAUGGAGAGGAGGCAGGCCUCGGUGGCGCGAUAGCGCCAACGUCCUCAACCUCCAAUGCAUCCUACCAUAUGAUGAUGCCUGAAGAGCCUUGGUUUUUUG [C8G C40G U54C C99U C104U]	-2.91
GACCAAUGUGCCCUCAGAGCUCGAGAACAUCUUUGGAUUCAGAGGAGGCAGGCUUCGAUGGCGCGAUAGCGCCAACGUCCUCAUCCUCCAAUGCAUCCCACCACAUGAUGAUGCCUGAAGAGCCUUGGUUUUUUG [C8G C34U G39U G58A A84U]	-5.29
GACCAAUGUGCCCUCAGAGCUCGAGAACAUCUUCGGAUGCAGAGGAGGCAGGUUUCGGUGGCGCGAUAGCGCCAACGUCCUCAACCUCAAAUGCAUCCCACCACAUGAUGAUGCCUGAAGAGCCUUGGUUUUUUG [C8G C53U C89A]	-1.28
GACCAAUGUGCCCUCAGAGCUCGAGAACAUCUUCGGAUGCAGAGGAGGCAGGCUUCGGUGGCGCGAUAGCGCCAACGUCCUCAACCUCCAAUGCAUCGCACCACAUGAUGAUGCCUGAAGAGCCUUGGUUUUUUG [C8G C98G]	-5.23
GACCAAUGUGCCCUCAGAGCUCGAGAACAUCUUCGGAUGAAGAGGAGGCAGGGUUCGGUGGCUCGAUAGCGCCAACGUCCUCAACCUCCAAUGCAUCCCACCACAUGAGGAUGCCUGAAGAGCCUUGGUUUUUUG [C8G C40A C53G G63U U109G]	-7.06
GACCAAUGUGCCCUCAGAGCUCGAGAACAUCUUCGGAUGCAGAGGAGGGAGGCUUCGGUGGCGCGAUAGCACCAACGUCCUCAACCACCAAUGCAUCCCACCACAUGAUGAUGCCUGAAGAGCUUUGGUUUUUUG [C8G C49G G71A U87A C124U]	0.992
GACCAAUGUGCCCUCAGAGCUCGAGAAAAUCUUCGGAUGCAGAGGAGGCAGGCUUCGGUGGCGCGAUAGCGCCAACGUCCUCAACCUCCAAUGCAUCCCACCACAUGAUGAUGCCUGAAGAGCCUUGGUAUUUUG [C8G C28A U130A]	-5.09
